Measurements: patent publication US20140295012A1, “LATENT HUMAN IMMUNODEFICIENCY VIRUS REACTIVATION” (priority 2011, published 2014)
*1 amine or outer side, *2 acyl side, *3 side chain or, on linkers, in order; H or OH if unused. Where a SMILES comes first, the peptide text is derived from it. Bridges are numbered along the chain shown (N, C = ends). Roman numbers before positions name the chains, in order. [ ]: non-standard residue; d: D form. Actinocin(9to1) = Cc1c2oc3c(C)ccc(C(=O)[*:1])c3nc-2c(C(=O)[*:2])c(N)c1=O; NMeV = CN[C@H](C(=O)O)C(C)C; Sar = CNCC(=O)O

B1: HRF: flagellin polypeptide from Massilia timonae (SEQ ID NO:10), used as bacterial culture supernatant (protein)
chain: MASVINTNVPSLNSQRNLSTSQAQLNTSIQRLSSGMRINSAKDDAAGLAISDRMNSQIKGMTQATRNANDGVSMAQTAEGALSSSGDILQRIRELAVQSSNSSNSASDRKALQTEVTQLSSELNRIANTTEFNGQKLMDGTLGTANFQVGANAGQLISMTGANFNTSVYGNNQIAGDAAKAAATTSAAATGAFTISGYLGTSAAINTTDADTAKTIAASINNVTGDTGVTATARTDSFLKSAGGAHTMSLASDNSGTGEAVDISFTVGDGGDTADDYAAAISAFNAQTAKTGVTAEYDAVEKGLKLTNSAGENISLTNKAGSADIDMDTYAADGALMASALTLEAGDVGVANGRVTMDSEKSFSVAEGTDTGFELADSSALKSVAKIDISDFEGAQEAIKVADAALSAVNSQRAEYGALQSRFESAISNLSSSTENLSASRSRIVDTDFAAETAKMTRGQILQQAGTSMLAQANSLPNGVLSLLRG

Legend:
[1] = system: latently HIV-1 infected EF7 cells; assay: Priming of latent HIV-1 infection in EF7 T cells (converse sense integration); format: cell-based; conditions: 4 ng/ml, 18 hours pretreatment
Method: FIGS. 13A-B show the effect of dactinomycin on latent infection as a function of the orientation of integration relative to the direction of host-gene transcription. HIV-1 can integrate in the same transcriptional orientation as the host-gene or in the converse sense. Two latently HIV-1 infected T cell lines, which were determined to have HIV-1 integrated in the same sense orientation (CA5 cells) (FIG. 13A) and in the converse sense orientation (EF7 cells) (FIG. 13B) were used. For either cell line, the host-gene name, the position of integration and the chromosome number is given. For either T cell line, reactivation levels achieved by TNF-α treatment alone or by TNF-α stimulation following pretreatment with 4 ng/ml dactinomycin for 18 hours are shown. Reactivation levels were determined using flow cytometric analysis for GFP expression. The gray dotted line represents maximum achievable reactivation levels using PMA.
The sense of orientation of the integrated latent virus, relative to the transcriptional direction of the host-gene, was investigated to determine whether the orientation would influence the ability of dactinomycin to prime latent infection for reactivation. […]

[2] = system: latently HIV-1 infected primary T cells; assay: Reactivation of latent HIV-1 infection in primary T cells (GFP); format: cell-based; conditions: 24 hours
Method: Latently HIV-1 infected primary T cells were treated for 24 hours with aclacinomycin (ACM) or dactinomycin (ActD), or with the anti-CD3 monoclonal antibody (mAb) OKT3. Reactivation levels were determined as a percentage of GFP-positive cells 24 hours after stimulation. Viability of the cells correlates with the size of the symbol.
To determine if aclacinomycin or dactinomycin were capable of reactivating a latent HIV-1 infection in primary T cells, latently HIV-1 infected primary T cells were treated with aclacinomycin or dactinomycin or with the anti-CD3 monoclonal antibody OKT3 for 24 hours. Reactivation of the latent HIV-1 infection was observed by increasing levels of GFP fluorescence.

[3] = system: NF-κB p50; assay: NF-κB p50 activity in nuclear extracts of Jurkat cells (TransAM NF-κB family ELISA); format: cell-based
Method: (§1) FIGS. 7A-7D are graphs showing the kinetics of HRF-mediated induction of NF-κB activity. Jurkat or latently HIV-1 infected CA5 T cells were stimulated with optimal concentrations of PMA and HRF, and cells were harvested at the indicated time points. Nuclear extracts were generated and (FIGS. 7A and 7C) NF-κB p50 activity and (FIGS. 7B and 7D) NF-κB p65 activity were determined using the TransAM™ NF-κB family ELISA kit (Active Motif; Carlsbad, Calif.).
(§2) Cells were grown in RPMI medium supplemented with 10% FBS and 1% PSG to approximately 5×10^5 cells per milliliter. Cells were centrifuged and resuspended in fresh pre-warmed medium. PMA, HRF and/or JNKiV were added immediately at the indicated concentrations. The final cell density for the assay was 1×10^6 cells per milliliter. The culture flasks were kept in a humidified CO2 incubator at 37° C. For each time point, a 1 ml cell suspension was removed and immediately centrifuged at full speed in a tabletop centrifuge for 30 seconds. […] The protein concentration of the extracts was determined by using the BCA protein assay Kit (ThermoFisher). […] The absorbance at 595 nm was determined using a 96 well plate reader (Synergy HT, BIO-Tek; Winooski, Vt.).
(§3) NF-κB activity in nuclear extracts was quantified using the TransAM™ NF-κB family ELISA kit from Active Motif, Inc. (Carlsbad, Calif.) according to the manufacturer's instructions.

[4] = system: NF-κB p65; assay: NF-κB p65 activity in nuclear extracts of Jurkat cells (TransAM NF-κB family ELISA); format: cell-based
Method: as §1, §2, §3

[5] = system: IL-8, TNF-α, and IFN-γ; assay: Cytokine secretion by PBMCs (BioPlex analysis); format: cell-based, human; conditions: 24 hours
Method: FIGS. 8A-8C show HRF induced NF-κB and cytokine expression in peripheral blood mononuclear cells (PBMCs). […] PBMCs were activated with optimal concentrations of either PHA-L or with HRF. Cells were harvested at the indicated time points. Nuclear extracts were generated and NF-κB p50 activity and NF-κB p65 activity were determined using the TransAM™ NF-κB family ELISA kit (Active Motif). […] PBMCs from four different healthy donors were stimulated with an anti-CD3/CD28 antibody combination and infected with a GFP reporter virus on day 4 post-stimulation. HIV-1 replication was monitored in the absence (C) or presence of HRF for 5 days and the achieved HIV-1 infection levels were determined by flow cytometric analysis for the percentage of EGFP-positive cells. […] Culture supernatants were collected after 24 hours and the concentrations of a panel of cytokines was determined by BioPlex analysis. […]
Following stimulation of the peripheral blood mononuclear cells (PBMCs) with PHA-L or HIV-1 reactivating factor (HRF), supernatant samples were collected at time points between 12 and 48 hours post stimulation. […] Therefore, cytokine levels in culture supernatant samples from all donors were determined at the 24 hour time point using a customized Milliplex mAP kit for the simultaneous analysis of six human cytokines (IL-2, IL-4, IL-6, IL-8, TNF-α and IFN-γ). […]

Molecule | priming effect for reactivation by TNF-α [1] | reactivation of latent HIV-1 infection [2] | NF-κB p50 activation amplitude compared to PMA stimulation ([3]; Jurkat cells) | duration of induced NF-κB activity in comparison to PMA ([3]; parental Jurkat T cells) | NF-κB p65 activation amplitude compared to PMA stimulation [4] | pro-inflammatory cytokine secretion (IL-8, TNF-α, and IFN-γ) [5]
Cc1c2oc3c(C)ccc(C(=O)N[C@@H]4C(=O)N[C@H](C(C)C)C(=O)N5CCC[C@H]5C(=O)N(C)CC(=O)N(C)[C@@H](C(C)C)C(=O)O[C@@H]4C)c3nc-2c(C(=O)N[C@@H]2C(=O)N[C@H](C(C)C)C(=O)N3CCC[C@H]3C(=O)N(C)CC(=O)N(C)[C@@H](C(C)C)C(=O)O[C@@H]2C)c(N)c1=O [dactinomycin] (I: T[dV]P[Sar][NMeV] / II: T[dV]P[Sar][NMeV]; ester I:1-I:C, II:1-II:C; linker I:N-II:N via Actinocin(9to1)) | exerted its priming effect in each integration scenario | capable of reactivating latent HIV-1 infections |  |  |  | 
B1 |  |  | ~3 fold | less sustained | ~3 fold | did not induce meaningful levels
